From patent US20240228629A1 (CITY OF HOPE, published 2024)
Values belong to the binder of their own block, whether it stands above or below them.

How the values were obtained:
BSA = molecular target: T1, BSA (bovine, UniProt P02769); assay: ELISA on coated recombinant proteins, title "Titer of purified mAb"; antibody concentration not given
T1 construct: also called bovine serum albumin

[1] = molecular target: T2, D4-IgA1 (extracellular domain IV of human EGFR fused with human IgA1.Fc) (human); assay: ELISA: EGFR-IgA1 immobilised in microwells, hybridoma culture supernatant, goat anti-mouse IgG.Fc-HRP, OD450
T2 construct: also called EGFR-IgA1; human EGFR-IgA
T2 chain: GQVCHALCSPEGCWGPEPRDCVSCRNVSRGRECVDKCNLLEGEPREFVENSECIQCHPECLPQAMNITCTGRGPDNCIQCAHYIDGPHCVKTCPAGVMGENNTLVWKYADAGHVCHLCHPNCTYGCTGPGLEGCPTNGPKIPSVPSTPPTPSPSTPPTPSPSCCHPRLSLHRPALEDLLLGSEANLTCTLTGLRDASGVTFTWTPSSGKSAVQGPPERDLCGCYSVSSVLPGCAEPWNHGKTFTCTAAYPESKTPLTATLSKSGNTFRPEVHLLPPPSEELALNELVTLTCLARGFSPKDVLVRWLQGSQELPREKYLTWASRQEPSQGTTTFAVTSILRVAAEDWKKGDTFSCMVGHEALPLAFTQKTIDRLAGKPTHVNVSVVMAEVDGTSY

EGFR domain IV [2] = molecular target: T3, EGFR domain IV (human, UniProt P00533 505-645); assay: SPR, EGFR domain IV immobilised on CM5 chip, IgG injected
T3 construct: Immobilised on a CM5 chip for SPR; also called domain IV of EGFR; EGFR D4

EGFR domain IV [3] = molecular target: T3, EGFR domain IV; assay: as above; remark: listed apart in the source
EGFR domain IV [4] = molecular target: T3, EGFR domain IV; assay: SPR, EGFR domain IV immobilised on CM5 chip, IgG injected; Table 18 (second kinetic set, apart from Table 17)
EGFR domain IV [5] = molecular target: T3, EGFR domain IV; assay: SPR, EGFR domain IV immobilised on CM5 chip, Fab injected
Procedure: EGFR domain IV was immobilized on a CM5 chip at a density of 500 RU through EDC/NHS coupling. […] In another experiment, EGFR domain IV was again immobilized on a CM5 chip at a density of 500 RU through EDC/NHS coupling. […] The samples were injected at concentrations of 300 nM, 100 nM, 30 nM, 10 nM, and 3 nM (FIGS. 15A-15C). The sensorgram curves were subsequently analyzed.

[6] = molecular target: T4, EGFRviii on U87-EGFRviii cells (human, UniProt P00533); assay: flow cytometry on U87-EGFRviii cells, 1, 10, 100 ug/ml, anti-Fc Alexa-647 secondary
T4 construct: the U87-EGFRviii cells also carry whatever EGFR the parent U87 line carries; a shift on these cells cannot be split between the two forms
Procedure: The cells were detached by trypsin and incubated with 1, 10, or 100 ug/ml EGFR Ab in 2% BSA in PBS at 4° ° C. After 30 minutes, cells were washed with 2% BSA in PBS. […] The cells were analyzed by flow cytometry after washing.

T1 sequence (P02769 25-607 limits assumed): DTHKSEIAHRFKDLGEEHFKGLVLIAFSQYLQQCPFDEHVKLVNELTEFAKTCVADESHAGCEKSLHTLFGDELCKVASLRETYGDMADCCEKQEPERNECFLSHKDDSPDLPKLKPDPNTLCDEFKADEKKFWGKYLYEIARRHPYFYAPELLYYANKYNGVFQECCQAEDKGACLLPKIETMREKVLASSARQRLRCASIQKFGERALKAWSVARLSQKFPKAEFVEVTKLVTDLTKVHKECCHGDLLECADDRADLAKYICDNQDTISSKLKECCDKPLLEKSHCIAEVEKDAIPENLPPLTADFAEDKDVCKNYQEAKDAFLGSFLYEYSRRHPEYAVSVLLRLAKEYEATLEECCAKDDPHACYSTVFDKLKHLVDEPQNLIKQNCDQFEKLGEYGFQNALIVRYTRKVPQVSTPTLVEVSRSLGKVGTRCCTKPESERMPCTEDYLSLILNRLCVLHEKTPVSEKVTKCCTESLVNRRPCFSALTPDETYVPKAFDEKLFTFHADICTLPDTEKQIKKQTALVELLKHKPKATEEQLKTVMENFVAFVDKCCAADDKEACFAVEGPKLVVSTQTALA

binding result (BSA): no binding
binding result [1]: binds
B1: 5C8 hybridoma clone antibody (mouse, culture supernatant) (antibody, V domains shown)
VH: EVQLQQSGPELVKTGASVKISCKASGYSFTGYYMHWVKQSHGKSLEWIGYINCYNGAINYNQKFKGKATFTVDTSSSTVYMQFNSLTSEDSAVYYCVRAGIHYDYDEAWFAYWGQGTLVTVSA
VL: QAVVTQESALTTSPGETVTLTCRSSTGPVIIRNYANWVQEKPDHLFTGLIGGTNNRAPGVPARFSGSLIGDKAALTITGAQTEDEAIYFCALWYNNHWVFGGGTKLTVL
notes: Mouse antibody from hybridoma supernatant; also called 5C8 clone; Clone 5C8

Kd (EGFR domain IV [2]): 0.487 nM
koff (EGFR domain IV [2]): 0.000249 s⁻¹
kon (EGFR domain IV [2]): 512000 M⁻¹ s⁻¹
koff (EGFR domain IV [3]): 0.00013 s⁻¹
kon (EGFR domain IV [3]): 604000 M⁻¹ s⁻¹
Kd (EGFR domain IV [4]): 0.214 nM
B2: chimeric anti-domain IV EGFR antibody clone 5C8 (EGFRD4-5C8) (antibody, V domains shown)
VH: EVQLQQSGPELVKTGASVKISCKASGYSFTGYYMHWVKQSHGKSLEWIGYINCYNGAINYNQKFKGKATFTVDTSSSTVYMQFNSLTSEDSAVYYCVRAGIHYDYDEAWFAYWGQGTLVTVSA
VL: QAVVTQESALTTSPGETVTLTCRSSTGPVIIRNYANWVQEKPDHLFTGLIGGTNNRAPGVPARFSGSLIGDKAALTITGAQTEDEAIYFCALWYNNHWVFGGGTKLTVL
notes: also called 5C8 IgG; 5C8 mAb

Kd (EGFR domain IV [5]): 170 nM
koff (EGFR domain IV [5]): 0.0305 s⁻¹
kon (EGFR domain IV [5]): 179000 M⁻¹ s⁻¹
B3: EGFRD4-5C8 Fab (Fab, V domains shown)
VH: EVQLQQSGPELVKTGASVKISCKASGYSFTGYYMHWVKQSHGKSLEWIGYINCYNGAINYNQKFKGKATFTVDTSSSTVYMQFNSLTSEDSAVYYCVRAGIHYDYDEAWFAYWGQGTLVTVSA
VL: QAVVTQESALTTSPGETVTLTCRSSTGPVIIRNYANWVQEKPDHLFTGLIGGTNNRAPGVPARFSGSLIGDKAALTITGAQTEDEAIYFCALWYNNHWVFGGGTKLTVL
notes: Fab of clone 5C8

binding result [6]: binds
B4: EGFRD4-34Ab (antibody, V domains shown)
VH: QIQLVQSGPELKKPGETVKISCKASGYTFTNYGMNWVKQAPGKGLKWMGWINTYTGDPTYADDFKGRFAFSLETSASTAYLQINNLKNEDMATYFCARRISTMITTWFAYWGQGTLVTVSA
VL: DIQMTQSPASLSASVGETVTITCRASENIYSYLAWFQQRQGKSPQLLVYNAKTLTEGVPSRFSGSGSGTQFSLKINSLQPEDFGSYYCQHYQVTPYTFGGGTKLEIK
notes: also called Clone # 34
